Where “and” joins values, the source holds several entries; their conditions need not be identical. Equal entries are not always repeated. Where two headings read alike, the source gives them in different places. *1 amine or outer side, *2 acyl side, *3 side chain or, on linkers, in order; H or OH if unused. Where a SMILES comes first, the peptide text is derived from it. The star is where a group is joined. pNA = O=[N+]([O-])c1ccc(N*)cc1; Suc = O=C(CCC(=O)[*:2])[*:1]

Experimental findings from patent US5646028A, “Alkaline serine protease streptomyces griseus var. alkaliphus having enhanced stability against urea or guanidine” (The Clorox Company, priority 1995, dated 1997) are described below.

Series [1] has as its system SGPC. Format: biochemical, Streptomyces griseus. To be noted: for % remaining activity compared to a noninhibited control: pH 8.
For series [2], the target named is succinyl-Ala-Ala-Pro-Phe-para-nitroanilide.
In series [3] the test system is SGPC. As to the kind of experiment: Substrate specificity of SGPC with tetrapeptide substrates sAAPXpNA. The class given is biochemical, Streptomyces griseus. Conditions: pH 8.0, 10% DMSO, 24° C. How it is done:
The enzyme was assayed with a series of tetrapeptide substrates which had the form succinyl-Ala-Ala-Pro-X-para-nitroanilide (sAAPXpNA) (SEQ ID NOS. 3-20), where X is the P1 amino acid (the residue found on the N-terminal side of the bond which is cleaved). Kinetics constants kcat and Km were determined by assaying an appropriate dilution of SGPC with eight different concentrations of each substrate. Each substrate was dissolved in 100% DMSO to a concentration of 100 mM with the exception of sAAPQpNA (SEQ ID NO. 13) which was soluble only to a concentration of 15 mM. Five ul of an appropriate dilution of SGPC was placed in the wells of a microtiter dish. The reaction was initiated by adding 95 ul of the reaction mixture which was comprised of 50 ul of sodium bicine, pH 8.0, 35 ul of water, and 10 ul of the appropriate concentration of substrate in DMSO. The final concentration of DMSO was 10% in all of the reactions. All substrate concentrations were done in triplicate and rates were determined at 24° C. using a microtiter plate reader.

A short description of series [4]: Wash performance test, beaker-scale grass stain removal from cotton swatches.
The nature of the next series: pH profile of SGPC. Format: biochemical. Conditions: 2 mM SAAPFpNA, 10% DMSO.
The conditions of series [5]: for % activity compared to the non-treated control: 24° C., pH 5.0.

Regarding `O=C(O)CI` [IOAc, iodoacetic acid], in the series with SGPC [1], the “inhibition of SGPC (in words)” value is “no significant inhibition”; the “% remaining activity compared to a noninhibited control” value was 104% and 103%.
As to `O=S(=O)(F)Cc1ccccc1` [PMSF, phenylmethylsulfonyl fluoride], in the series on SGPC [1], the “inhibition of SGPC (in words)” value is reported as “inhibit SGPC”; the “% remaining activity compared to a noninhibited control” value is 0.07% and 0.06%.
Take S. griseus protease C (enzyme): the kcat /Km was 6830 M^-1 S^-1 in the series with sAAPApNA; 14400 M^-1 S^-1 with sAAPCpNA; 351 M^-1 S^-1 with sAAPDpNA; 22000 M^-1 S^-1 with sAAPHpNA; 2580 M^-1 S^-1 with sAAPKpNA; 27000 M^-1 S^-1 with sAAPLpNA. Further, the kcat /Km is 100000 M^-1 S^-1 in the series with sAAPMpNA; 12200 M^-1 S^-1 with sAAPNpNA; 2550 M^-1 S^-1 with sAAPQpNA; 4000 M^-1 S^-1 in the series with sAAPRpNA; 1890 M^-1 S^-1 with sAAPSpNA; 1770 M^-1 S^-1 in the series with sAAPTpNA. The kcat /Km with sAAPVpNA came to 1420 M^-1 S^-1; with sAAPYpNA it was 61800 M^-1 S^-1; in series [2] it was 138000 M^-1 S^-1.
Turning to `O=C(O)CN(CCN(CC(=O)O)CC(=O)O)CC(=O)O` [EDTA, ethylenediaminetetraacetic acid], in the series with SGPC [1], the “inhibition of SGPC (in words)” value was “no significant inhibition”; the “% remaining activity compared to a noninhibited control” value is 97% and 94%.
The Km is the concentration of substrate that gives half-maximal velocity. For the molecule `C[C@H](NC(=O)CCC(=O)O)C(=O)N[C@@H](C)C(=O)N1CCC[C@H]1C(=O)N[C@@H](CC(N)=O)C(=O)Nc1ccc([N+](=O)[O-])cc1` [sAAPNpNA] (Suc-AAPN-pNA), in the series with SGPC [3], the Km turned out to be 2910 µM, the kcat stood at 35.3 S^-1 and the “kcat /Km” value is 12,160 M^-1 S^-1.
Take `C[C@H](NC(=O)CCC(=O)O)C(=O)N[C@@H](C)C(=O)N1CCC[C@H]1C(=O)N[C@@H](CCC(=O)O)C(=O)Nc1ccc([N+](=O)[O-])cc1` [sAAPEpNA] (Suc-AAPE-pNA): the “rates seen with the substrate” value in the series with SGPC [3] is recorded as “too samll to be reliable”.
As for `C[C@H](NC(=O)CCC(=O)O)C(=O)N[C@@H](C)C(=O)N1CCC[C@H]1C(=O)N[C@@H](CO)C(=O)Nc1ccc([N+](=O)[O-])cc1` [sAAPSpNA] (Suc-AAPS-pNA), in the series with SGPC [3], the Km came to 3730 µM, the kcat was found to be 7.05 S^-1 and the “kcat /Km” value is 1,893 M^-1 S^-1.
For `CC(C)[C@H](NC(=O)[C@@H]1CCCN1C(=O)[C@H](C)NC(=O)[C@H](C)NC(=O)CCC(=O)O)C(=O)Nc1ccc([N+](=O)[O-])cc1` [sAAPVpNA] (Suc-AAPV-pNA) the same measures were 1080 µM, 0.53 S^-1 and 1,422 M^-1 S^-1.
On to `CC(C)C[C@H](NC(=O)[C@@H]1CCCN1C(=O)[C@H](C)NC(=O)[C@H](C)NC(=O)CCC(=O)O)C(=O)Nc1ccc([N+](=O)[O-])cc1` [sAAPLpNA] (Suc-AAPL-pNA), for which, in the series on SGPC [3], the Km worked out at 920 µM, the kcat stood at 24.8 S^-1 and the “kcat /Km” value was 27,030 M^-1 S^-1.
`C[C@H](NC(=O)CCC(=O)O)C(=O)N[C@@H](C)C(=O)N1CCC[C@H]1C(=O)N[C@@H](CS)C(=O)Nc1ccc([N+](=O)[O-])cc1` [sAAPCpNA] (Suc-AAPC-pNA): in the series with SGPC [3], the Michaelis constant (Km) stood at 4260 µM, the kcat was determined as 61.3 S^-1 and the “kcat /Km” value is recorded as 14,380 M^-1 S^-1.

B1: SGPC: alkaline serine protease from Streptomyces griseus var. alkaliphilus No. 33, apparent molecular weight about 19,000 daltons (protein, UniProt P52320 203-457, looked up)
Streptogrisin-C: ADIRGGDAYYMNGSGRCSVGFSVTRGTQNGFATAGHCGRVGTTTNGVNQQAQGTFQGSTFPGRDIAWVATNANWTPRPLVNGYGRGDVTVAGSTASVVGASVCRSGSTTGWHCGTIQQLNTSVTYPEGTISGVTRTSVCAEPGDSGGSYISGSQAQGVTSGGSGNCSSGGTTYFQPINPLLQAYGLTLVTSGGGTPTDPPTTPPTDSPGGTWAVGTAYAAGATVTYGGATYRCLQAHTAQPGWTPADVPALWQRV
In the case of B1, the “effectiveness against grass stain compared with Savinase” value in series [4] (equal weight of protease in the wash liquor) was “more effective than Savinase”. In addition, the “(delta) % SRE (percent stain removal over a control containing no enzyme)” value in series [4] (grass stain, cotton swatches, 37° C., powdered detergent 104 g/69 liters, pH 10.5, 0.25 mg protease/500 ml wash liquor) is reported as 59.6%. In “pH profile of SGPC”, the “pH optimum (in words)” value was “highly alkaline pH optimum”. The “% activity compared to the non-treated control” value in series [5] (2 M Guanidine, 1 hour) was determined as 125.7%; in [5] (2 M Guanidine, 24 hours), 105.7%; in series [5] (2 M Urea, 1 hour), 103.5%; in series [5] (2 M Urea, 24 hours) it was 98.1%; in [5] (4 M Guanidine, 1 hour), 130.4%; in series [5] (4 M Guanidine, 24 hours), 55.8%. Besides, the “% activity compared to the non-treated control” value in [5] (4 M Urea, 1 hour) is 118.2%; in [5] (4 M Urea, 24 hours), 112.4%; in [5] (6 M Guanidine, 1 hour), 98.0%; in [5] (6 M Guanidine, 24 hours), 10.1%; in series [5] (6 M Urea, 1 hour), 116.4%; in series [5] (6 M Urea, 24 hours), 112.9%. For the same molecule, the “effect on the activity (in words)” value is “very little effect” in series [5] (2 M to 6 M urea, 24 hr vs 1 hr); “substantial losses of activity” in series [5] (Guanidine 4 M to 6 M, 24 hr); “slight effect” in series [5] (Guanidine at 2 M, 24 hr).
